Measured values taken from patent publication US6818612B2, “Use of parvovirus capsid particles in the inhibition of cell proliferation and migration” (priority 1998, dated 2004).

How the values were obtained:
[1] = system: human fetal liver cells; experiment: Colony formation assay (Stem cell CFU kit, 11 day) of fetal liver cells; format: cell-based; conditions: FIG. 9
[2] = system: human umbilical vein endothelial cells (HUVEC); experiment: Endothelial cell proliferation assay (crystal violet, A540); format: cell-based
Method: To determine whether B19 parvovirus capsids can inhibit endothelial cell proliferation, assays were performed in which primary human umbilical vein endothelial cells, plated at a density of 1.5×10^4 cells per well in a 24 well plate, were incubated with B19 parvovirus capsids in the presence of 0.5% fetal calf serum+10.0 ng/ml basic fibroblast growth factor. The various B19 parvovirus capsid preparations (i.e., VP1/2 or capsids made with only VP1 or VP2) were added to each well on the following day and the cells with capsids were incubated for additional 72 hours. Cell proliferation was then determined by using a crystal violet dye assay. Accordingly, capsid treated cells were washed in PBS, fixed in 3.7% formaldehyde, and incubated with crystal violet. The dye was then removed by extensive washes with distilled water. The cell-associated crystal violet was solubilized with 10% acetic acid and quantified at absorbance 540 nm in an ELISA plate reader.
Thus, from left to right, the bars represent the absorbance at 540 nm with 0 μg/ml, 0.01 μg/ml, 0.1 μg/ml, 1.0 μg/ml, and 10.0 μg/ml. […] The standard deviation was within 10%.

[3] = system: human fetal liver cells; experiment: Colony formation assay (Stem cell CFU kit, 11 day) of fetal liver cells; format: cell-based; conditions: fetal liver cells
Source text: In a first set of experiments, it was discovered that B19 parvovirus capsids inhibit hematopoiesis and that these molecules could be used to reduce the overproduction of red blood cells, white blood cells, and blood platelets, as is experienced by patients suffering from hematological proliferative diseases, such as Polycytemia Vera. (See FIG. 1A). In a first set of experiments, fresh human fetal liver cells, umbilical cord blood cells, and bone marrow cells were contacted with recombinant B19 parvovirus capsids in a colony formation assay. The general features of a colony formation assay are depicted in FIG. 1B. The ability of the B19 parvovirus capsids to inhibit hematopoiesis was verified by the reduction of colony formation in the presence of the capsids, as compared to untreated control populations of cells. A more detailed description of these experiments is provided below.
To obtain fetal liver tissue, human fetuses 6-12 weeks of gestational age were obtained from legal abortions; the patients had volunteered to donate fetal tissue. Gestational age was estimated according to specific anatomical markers and is given as menstruational age. Abortions were performed with vacuum aspirations. Fetal liver was dissected under sterile conditions, placed in a sterile tube containing RPMI1640 and disintegrated by passage through a vinyl mesh to form a single cell suspension. Nucleated cells were then washed three times, counted and diluted in culture medium.
A commercial kit—the “Stem cell CFU kit” (GIBCO BRL, Life Technology Inc., NY, USA)—was used to perform the colony formation assays. The kit provides a semi-solid support that mimics the extracellular matrix produced by stromal cells. Other components included in the kit are: Iscove's modified Dulbecco's medium, modified fetal bovine serum, methylcellulose, 2-mercaptoethanol, conditioned medium and erythropoietin. The colonies that were formed in the assay were identified as BFU-E (burst forming unit-erythroid cells) with densely packed hemoglobonized cells, CFU-GM (colony forming units-granulocytes, macrophages) with arrangements of non-hemoglobinized cells, and CFU-GEMM (colony forming units-granulocytes, erythroid cells, macrophages, megakaryocytes) with hemoglobinized cells and small and large peripheral cells.
Recombinant B19 parvovirus empty capsid particles (Kajigaya et al., Proc Natl Acad Sci USA, 88:4646 (1991)) were prepared in a recombinant baculovirus-insect cell (Spodofera frugiperda) expression system. (Kajigaya et al., Proc Natl Acad Sci USA, 88:4646 (1991)). The isolated or purified capsids were diluted in buffer (20 mM Tris, 0.5M NaCl, pH 8.5) and 30 μL of each dilution was added to approximately 25×10^3 cells (50×10^3 for postnatal cells) in 100 μL of culture medium and incubated for 1 hour at 4° C. The mixtures were then transferred to incubation dishes and culture medium was added to a final volume of 0.5 ml per well. The cells were then incubated for 11 days in a humidified atmosphere at 5% CO2, and were scored for BFU-E, CFU-GM and CFU-GEMM derived colony formation.

[4] = system: HUVEC cells; experiment: Endothelial cell migration assay (modified Boyden chamber); format: cell-based, human
Method: The effect of B19 parvovirus capsid preparations on cell migration was also determined. The migration assays were performed using a modified Boyden chamber assay (Neuroprobe, Inc.). Basic fibroblast growth factor (40 ng/ml) was added to stimulate migration of the HUVEC cells through a collagen 1 coated 8 μm pore size millipore filter. Cells were incubated for 60 min with the various B19 parvovirus capsid preparations (i.e., VP1/2 or capsids made with only VP1 or VP2) prior to conducting the migration assay. To perform the migration assay, the Boyden chamber was incubated for 4.5 h at 37° C. in a 10% CO2 atmosphere. The filters were subsequently removed and were fixed in 3.7% formaldehyde. Cell migration was visualized by staining the filters overnight in Gill's Hematoxylin. The number of migrating cells were scored by counting stained cells on the migrating side of the filter per high power magnification field. (See FIG. 15).

| Molecule | inhibition of hematopoiesis and cell growth (colony formation) by deletion series peptides [1] | inhibition of endothelial cell proliferation ([2]; 10.0 μg/ml, FIG. 14) | lowest concentration that efficiently inhibits endothelial cell proliferation ([2]; 72 hours, 10.0 ng/ml basic fibroblast growth factor, FIG. 14, 'as low as') [µg/mL] | inhibition of colony formation ([3]; 1 μg/ml VP2 capsid, FIG. 4) | colony formation, % of the control ([3]; 30 μg/mL, FIG. 5) | inhibition of hematopoietic cell growth ([3]; 30 μg/ml, FIG. 3) | lowest concentration at which inhibition of colony formation of hematopoietic cells was seen ([3]; 11 day colony formation assay, 'as little as' / 'as low as') [µg/mL] | inhibition of colony formation of hematopoietic stem cells compared with VP1/2 capsids ([3]; FIG. 4) | inhibition of endothelial cell migration compared with other capsid preparations ([4]; FIG. 15) | lowest concentration that effectively inhibited endothelial cell migration ([4]; basic fibroblast growth factor 40 ng/ml, FIG. 15, 'as low as') [µg/mL] |
| --- | --- | --- | --- | --- | --- | --- | --- | --- | --- | --- |
| NKGTQQYTDQ (OTHER INFORMATION: Peptide fragments derived from parvovirus capsid particles) [Peptide IV] | significantly inhibit hematopoiesis and cell growth | – | – | – | – | – | – | – | – | – |
| QQY [Peptide VIII] | significantly inhibit hematopoiesis and cell growth | – | – | – | – | – | – | – | – | – |
| VP2 capsids: B19 parvovirus capsids having only VP2 (protein) MTSVNSAEASTGAGGGGSNSVKSMWSEGATFSANSVTCTFSRQFLIPYDPEHHYKVFSPAASSCHNASGKEAKVCTISPIMGYSTPWRYLDFNALNLFFSPLEFQHLIENYGSIAPDALTVTISEIAVKDVTDKTGGGVQVTDSTTGRLCMLVDHEYKYPYVLGQGQDTLAPELPIWVYFPPQYAYLTVGDVNTQGISGDSKKLASEESAFYVLEHSSFQLLGTGGTASMSYKFPPVPPENLEGCSQHFYEMYNPLYGSRLGVPDTLGGDPKFRSLTHEDHAIQPQNFMPGPLVNSVSTKEGDSSNTGAGKALTGLSTGTSQNTRISLRPGPVSQPYHHWDTDKYVTGINAISHGQTTYGNAEDKEYQQGVGRFPNEKEQLKQLQGLNMHTYFPNKGTQQYTDQIERPLMVGSVWNRRALHYESQLWSKIPNLDDSFKTQFAALGGWGLHQPPPQIFLKILPQSGPIGGIKSMGITTLVQYAVGIMTVTMTFKLGPRKATGRWNPQPGVYPPHAAGHLPYVLYDPTATDAKQHHRHGYEKPEELWTAKSRVHPL | – | significant inhibition | 1.0 | Approximately 50% | less than 30 % of the control | significant inhibition | 3 | as effectively as VP1/2 capsids | significantly more potent than that observed with either native capsids (VP1/2) or capsids having only VP1 | 1 |
